According to PMC11254524 (Cell Insight, 2024):

Biological target: GST-tagged AKT1 (UniProt P31749 1-480)
Assay: pull-down

Sequence of GST-tagged AKT1 (P31749 whole entry): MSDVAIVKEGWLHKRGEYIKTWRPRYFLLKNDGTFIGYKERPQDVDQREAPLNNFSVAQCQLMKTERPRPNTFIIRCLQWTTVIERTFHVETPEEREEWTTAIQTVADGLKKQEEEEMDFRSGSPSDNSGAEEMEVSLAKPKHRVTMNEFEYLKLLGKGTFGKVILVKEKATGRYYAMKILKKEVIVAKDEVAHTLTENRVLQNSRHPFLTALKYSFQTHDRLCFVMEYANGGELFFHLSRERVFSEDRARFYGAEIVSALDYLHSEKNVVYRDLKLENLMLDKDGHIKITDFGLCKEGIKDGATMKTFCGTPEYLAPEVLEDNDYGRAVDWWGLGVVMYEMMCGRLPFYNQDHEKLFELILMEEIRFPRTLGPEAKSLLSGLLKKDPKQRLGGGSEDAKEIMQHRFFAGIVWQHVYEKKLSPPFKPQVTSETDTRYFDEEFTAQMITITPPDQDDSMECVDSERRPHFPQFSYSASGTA

binding result: binds
B1: His-tagged SFN (natural protein, UniProt P31947 1-248, looked up)
chain: MERASLIQKAKLAEQAERYEDMAAFMKGAVEKGEELSCEERNLLSVAYKNVVGGQRAAWRVLSSIEQKSNEEGSEEKGPEVREYREKVETELQGVCDTVLGLLDSHLIKEAGDAESRVFYLKMKGDYYRYLAEVATGDDKKRIIDSARSAYQEAMDISKKEMPPTNPIRLGLALNFSVFHYEIANSPEEAISLAKTTFDEAMADLHTLSEDSYKDSTLIMQLLRDNLTLWTADNAGEEGGEAPQEPQS
